Results from the RNAGym collection of RNA variant scans (doi:10.7554/elife.90254).

B1: LINE1-mini (parent)
chain: GGCAGAGCUCAACACAGCGUGGCAAAGUGGCUGUGGCUAGACUGCC

Variants of: B1
Assay: self-cleavage, relative activity (ratio to wild type); higher = more cleavage; in vitro, sequencing; the parent is a self-cleaving ribozyme
GGCAGAGCUCAACACAGCGUGGCAAAGUGGCUGUGGCUAGUUUGCC [A41U C42U] showed a self-cleavage of 0.09. In the case of GGCAGAGCUCAACACAGCGUGGCAAAGUGGCUGUGGCUAGUAUGCC [A41U C42A], the self-cleavage is reported as 0.09. GGCAGAGCUCAACACAGCGUGGCAAAGUGGCUGUGGCUAUACUGCG [G40U C46G] gave a self-cleavage of 0.06. For GGCAGAGCUCAACACAGCGUGGCAAAGUGGCUGUGGCUAUACUGCA [G40U C46A], the self-cleavage was 0.12. GGCAGAGCUCAACACAGCGUGGCAAAGUGGCUGUGGCUAUACUGCU [G40U C46U] gave a self-cleavage of 0.11. In the case of GGCAGAGCUCAACACAGCGUGGCAAAGUGGCUGUGGCUACAAUGCC [G40C C42A], the self-cleavage is reported as 0.07. In the case of GGCAGAGCUCAACACAGCGUGGCAAAGUGGCUGUGGCUACAGUGCC [G40C C42G], the self-cleavage is reported as 0.1. Variant GGCAGAGCUCAACACAGCGUGGCAAAGUGGCUGUGGCUACAUUGCC [G40C C42U] has a self-cleavage of 0.07. Variant GGCAGAGCUCAACACAGCGUGGCAAAGUGGCUGUGGCUUGACCGCC [A39U U43C] has a self-cleavage of 0.06. With GGCAGAGCUCAACACAGCGUGGCAAAGUGGCUGUGGCUUGACAGCC [A39U U43A] the self-cleavage was 0.06. Variant GGCAGAGCUCAACACAGCGUGGCAAAGUGGCUGUGGCUUGACGGCC [A39U U43G] has a self-cleavage of 0.02. In the case of GGCAGAGCUCAACACAGCGUGGCAAAGUGGCUGUGGCUAUACCGCC [G40U U43C], the self-cleavage is reported as 0.15. With GGCAGAGCUCAACACAGCGUGGCAAAGUGGCUGUGGCUAUACGGCC [G40U U43G] the self-cleavage was 0.47. With GGCAGAGCUCAACACAGCGUGGCAAAGUGGCUGUGGCUAUACAGCC [G40U U43A] the self-cleavage was 0.08. Work on GGCAGAGCUCAACACAGCGUGGCAAAGUGGCUGUGGCUAGUCUGCA [A41U C46A] yielded a self-cleavage of 0.33. With GGCAGAGCUCAACACAGCGUGGCAAAGUGGCUGUGGCUAGUCUGCG [A41U C46G] the self-cleavage was 0.57. With GGCAGAGCUCAACACAGCGUGGCAAAGUGGCUGUGGCUAGUCUGCU [A41U C46U] the self-cleavage was 0.9. In the case of GGCAGAGCUCAACACAGCGUGGCAAAGUGGCUGUGGCUAGGCUCCC [A41G G44C], the self-cleavage is reported as 0.05. GGCAGAGCUCAACACAGCGUGGCAAAGUGGCUGUGGCUAGGCUACC [A41G G44A] showed a self-cleavage of 0.08. With GGCAGAGCUCAACACAGCGUGGCAAAGUGGCUGUGGCUAGGCUUCC [A41G G44U] the self-cleavage was 0.06. With GGCAGAGCUCAACACAGCGUGGCAAAGUGGCUGUGGCUAGCCUACC [A41C G44A] the self-cleavage was 0.05. With GGCAGAGCUCAACACAGCGUGGCAAAGUGGCUGUGGCUAGCCUUCC [A41C G44U] the self-cleavage was 0.11. With GGCAGAGCUCAACACAGCGUGGCAAAGUGGCUGUGGCUAGCCUCCC [A41C G44C] the self-cleavage was 0.08. GGCAGAGCUCAACACAGCGUGGCAAAGUGGCUGUGGCUACACUCCC [G40C G44C] showed a self-cleavage of 0.06. GGCAGAGCUCAACACAGCGUGGCAAAGUGGCUGUGGCUACACUUCC [G40C G44U] showed a self-cleavage of 0.07. Work on GGCAGAGCUCAACACAGCGUGGCAAAGUGGCUGUGGCUACACUACC [G40C G44A] yielded a self-cleavage of 0.12. With GGCAGAGCUCAACACAGCGUGGCAAAGUGGCUGUGGCUUGACUCCC [A39U G44C] the self-cleavage was 0.09. Variant GGCAGAGCUCAACACAGCGUGGCAAAGUGGCUGUGGCUUGACUUCC [A39U G44U] has a self-cleavage of 0.12. GGCAGAGCUCAACACAGCGUGGCAAAGUGGCUGUGGCUUGACUACC [A39U G44A] gave a self-cleavage of 0.18. Variant GGCAGAGCUCAACACAGCGUGGCAAAGUGGCUGUGGCUAGCCUGCA [A41C C46A] has a self-cleavage of 0.05. In the case of GGCAGAGCUCAACACAGCGUGGCAAAGUGGCUGUGGCUAGCCUGCG [A41C C46G], the self-cleavage is reported as 0.07. Variant GGCAGAGCUCAACACAGCGUGGCAAAGUGGCUGUGGCUAGCCUGCU [A41C C46U] has a self-cleavage of 0.04. With GGCAGAGCUCAACACAGCGUGGCAAAGUGGCUGUGGCUACGCUGCC [G40C A41G] the self-cleavage was 0.07. In the case of GGCAGAGCUCAACACAGCGUGGCAAAGUGGCUGUGGCUACCCUGCC [G40C A41C], the self-cleavage is reported as 0.09. In the case of GGCAGAGCUCAACACAGCGUGGCAAAGUGGCUGUGGCUACUCUGCC [G40C A41U], the self-cleavage is reported as 0.14. For GGCAGAGCUCAACACAGCGUGGCAAAGUGGCUGUGGCUAAGCUGCC [G40A A41G], the self-cleavage was 0.08. Work on GGCAGAGCUCAACACAGCGUGGCAAAGUGGCUGUGGCUAAUCUGCC [G40A A41U] yielded a self-cleavage of 0.26. For GGCAGAGCUCAACACAGCGUGGCAAAGUGGCUGUGGCUAACCUGCC [G40A A41C], the self-cleavage was 0.13. Variant GGCAGAGCUCAACACAGCGUGGCAAAGUGGCUGUGGCUACACUGGC [G40C C45G] has a self-cleavage of 0.05. In the case of GGCAGAGCUCAACACAGCGUGGCAAAGUGGCUGUGGCUACACUGUC [G40C C45U], the self-cleavage is reported as 0.1. GGCAGAGCUCAACACAGCGUGGCAAAGUGGCUGUGGCUACACUGAC [G40C C45A] gave a self-cleavage of 0.09. With GGCAGAGCUCAACACAGCGUGGCAAAGUGGCUGUGGCUAGGUUGCC [A41G C42U] the self-cleavage was 0.11. With GGCAGAGCUCAACACAGCGUGGCAAAGUGGCUGUGGCUAGGGUGCC [A41G C42G] the self-cleavage was 0.06. GGCAGAGCUCAACACAGCGUGGCAAAGUGGCUGUGGCUAGGAUGCC [A41G C42A] showed a self-cleavage of 0.12. GGCAGAGCUCAACACAGCGUGGCAAAGUGGCUGUGGCUAAACUUCC [G40A G44U] showed a self-cleavage of 0.08. In the case of GGCAGAGCUCAACACAGCGUGGCAAAGUGGCUGUGGCUAAACUCCC [G40A G44C], the self-cleavage is reported as 0.08. GGCAGAGCUCAACACAGCGUGGCAAAGUGGCUGUGGCUAAACUACC [G40A G44A] gave a self-cleavage of 0.19. GGCAGAGCUCAACACAGCGUGGCAAAGUGGCUGUGGCUAGCUUGCC [A41C C42U] showed a self-cleavage of 0.05. For GGCAGAGCUCAACACAGCGUGGCAAAGUGGCUGUGGCUAGCGUGCC [A41C C42G], the self-cleavage was 0.07. With GGCAGAGCUCAACACAGCGUGGCAAAGUGGCUGUGGCUAGCAUGCC [A41C C42A] the self-cleavage was 0.05. Work on GGCAGAGCUCAACACAGCGUGGCAAAGUGGCUGUGGCUACACCGCC [G40C U43C] yielded a self-cleavage of 0.07. GGCAGAGCUCAACACAGCGUGGCAAAGUGGCUGUGGCUACACAGCC [G40C U43A] gave a self-cleavage of 0.06. GGCAGAGCUCAACACAGCGUGGCAAAGUGGCUGUGGCUACACGGCC [G40C U43G] gave a self-cleavage of 0.41. With GGCAGAGCUCAACACAGCGUGGCAAAGUGGCUGUGGCUUGACUGCG [A39U C46G] the self-cleavage was 0.5. Work on GGCAGAGCUCAACACAGCGUGGCAAAGUGGCUGUGGCUUGACUGCU [A39U C46U] yielded a self-cleavage of 0.46. With GGCAGAGCUCAACACAGCGUGGCAAAGUGGCUGUGGCUUGACUGCA [A39U C46A] the self-cleavage was 0.75.
